Measured values taken from paper PMC8307404, “Crystal Structure-Guided Design of Bisubstrate Inhibitors and Photoluminescent Probes for Protein Kinases of the PIM Family” (Molecules, 2021).
Square brackets hold non-standard residues; d marks the D form. Peptide text beside a SMILES is read from it. * marks the point of attachment. X3 = O=C(CCCCCNCc1nc2c(sc3cc(Br)cnc32)c(=O)[nH]1)*

What was measured:
Experiment in all cases: Kinase profiling (radiometric filter-binding)
Assay type in all cases: biochemical
[1] = molecular target: T1, PKC (Homo sapiens, UniProt Q05513); conditions: second of two PKC lines (Greek letter lost), 1 µM inhibitor, read-out: Residual activity, %
T1 sequence (Q05513 1-592): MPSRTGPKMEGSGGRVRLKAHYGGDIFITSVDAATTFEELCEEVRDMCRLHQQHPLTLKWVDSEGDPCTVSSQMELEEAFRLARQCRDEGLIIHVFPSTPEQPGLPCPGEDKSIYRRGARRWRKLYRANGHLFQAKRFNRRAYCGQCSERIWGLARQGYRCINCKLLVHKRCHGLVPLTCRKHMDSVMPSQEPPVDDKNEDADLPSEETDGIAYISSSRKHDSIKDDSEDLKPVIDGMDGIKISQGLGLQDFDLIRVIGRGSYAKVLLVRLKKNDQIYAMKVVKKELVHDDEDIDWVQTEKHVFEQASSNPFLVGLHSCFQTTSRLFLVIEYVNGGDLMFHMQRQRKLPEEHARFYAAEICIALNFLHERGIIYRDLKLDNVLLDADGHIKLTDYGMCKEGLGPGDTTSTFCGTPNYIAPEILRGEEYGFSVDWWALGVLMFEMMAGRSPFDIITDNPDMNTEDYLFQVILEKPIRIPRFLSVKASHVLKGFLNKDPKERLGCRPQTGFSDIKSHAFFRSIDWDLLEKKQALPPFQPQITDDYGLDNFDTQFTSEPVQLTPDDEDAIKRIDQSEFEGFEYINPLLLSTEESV
Summary of the method: (§1)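 A 1 µM final dose of each inhibitor was profiled on human protein kinases; ATP was kept at or beneath the KM of every enzyme, and radiometric filter binding measured turnover, expressed as % of the inhibitor-free reaction.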

[2] = molecular target: T2, ULK1 (Homo sapiens, UniProt O75385); conditions: ULK1, 1 µM inhibitor; read-out: Residual activity, %
T2 sequence (O75385 1-1050): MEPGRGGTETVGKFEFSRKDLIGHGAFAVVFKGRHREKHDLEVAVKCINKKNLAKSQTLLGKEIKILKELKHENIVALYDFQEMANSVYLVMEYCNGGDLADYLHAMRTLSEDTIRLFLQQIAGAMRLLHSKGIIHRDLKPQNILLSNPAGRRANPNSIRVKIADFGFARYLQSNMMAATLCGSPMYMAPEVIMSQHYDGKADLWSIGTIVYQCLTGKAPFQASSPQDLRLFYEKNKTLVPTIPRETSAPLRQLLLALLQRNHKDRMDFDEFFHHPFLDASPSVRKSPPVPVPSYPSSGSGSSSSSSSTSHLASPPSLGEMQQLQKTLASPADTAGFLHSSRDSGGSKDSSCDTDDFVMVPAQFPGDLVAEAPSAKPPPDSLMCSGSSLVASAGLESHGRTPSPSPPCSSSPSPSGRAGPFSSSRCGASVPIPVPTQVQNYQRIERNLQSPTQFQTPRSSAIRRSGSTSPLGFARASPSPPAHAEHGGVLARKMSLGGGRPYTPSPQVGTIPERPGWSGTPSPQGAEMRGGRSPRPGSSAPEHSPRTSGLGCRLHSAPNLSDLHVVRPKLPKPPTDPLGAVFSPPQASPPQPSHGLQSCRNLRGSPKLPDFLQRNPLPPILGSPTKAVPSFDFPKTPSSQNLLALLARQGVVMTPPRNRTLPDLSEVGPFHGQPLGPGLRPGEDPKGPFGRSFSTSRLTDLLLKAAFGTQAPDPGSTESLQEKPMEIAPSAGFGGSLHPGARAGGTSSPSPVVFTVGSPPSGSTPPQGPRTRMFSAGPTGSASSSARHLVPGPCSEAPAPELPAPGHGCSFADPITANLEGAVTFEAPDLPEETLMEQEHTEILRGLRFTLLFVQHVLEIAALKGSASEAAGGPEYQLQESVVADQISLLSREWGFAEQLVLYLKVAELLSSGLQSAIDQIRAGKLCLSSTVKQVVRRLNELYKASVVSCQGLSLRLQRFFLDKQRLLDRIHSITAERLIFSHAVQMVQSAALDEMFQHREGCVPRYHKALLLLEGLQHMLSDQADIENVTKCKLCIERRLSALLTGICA
Summary of the method: as §1

[3] = molecular target: MAPKAP-K3 (Homo sapiens, UniProt Q16644); conditions: MAPKAP-K3, 1 µM inhibitor; read-out: Residual activity, %
Summary of the method: as §1

[4] = molecular target: T3, EPH-B1 (Homo sapiens, UniProt P54762); conditions: EPH-B1, 1 µM inhibitor; read-out: Residual activity, %
T3 sequence (P54762 18-984): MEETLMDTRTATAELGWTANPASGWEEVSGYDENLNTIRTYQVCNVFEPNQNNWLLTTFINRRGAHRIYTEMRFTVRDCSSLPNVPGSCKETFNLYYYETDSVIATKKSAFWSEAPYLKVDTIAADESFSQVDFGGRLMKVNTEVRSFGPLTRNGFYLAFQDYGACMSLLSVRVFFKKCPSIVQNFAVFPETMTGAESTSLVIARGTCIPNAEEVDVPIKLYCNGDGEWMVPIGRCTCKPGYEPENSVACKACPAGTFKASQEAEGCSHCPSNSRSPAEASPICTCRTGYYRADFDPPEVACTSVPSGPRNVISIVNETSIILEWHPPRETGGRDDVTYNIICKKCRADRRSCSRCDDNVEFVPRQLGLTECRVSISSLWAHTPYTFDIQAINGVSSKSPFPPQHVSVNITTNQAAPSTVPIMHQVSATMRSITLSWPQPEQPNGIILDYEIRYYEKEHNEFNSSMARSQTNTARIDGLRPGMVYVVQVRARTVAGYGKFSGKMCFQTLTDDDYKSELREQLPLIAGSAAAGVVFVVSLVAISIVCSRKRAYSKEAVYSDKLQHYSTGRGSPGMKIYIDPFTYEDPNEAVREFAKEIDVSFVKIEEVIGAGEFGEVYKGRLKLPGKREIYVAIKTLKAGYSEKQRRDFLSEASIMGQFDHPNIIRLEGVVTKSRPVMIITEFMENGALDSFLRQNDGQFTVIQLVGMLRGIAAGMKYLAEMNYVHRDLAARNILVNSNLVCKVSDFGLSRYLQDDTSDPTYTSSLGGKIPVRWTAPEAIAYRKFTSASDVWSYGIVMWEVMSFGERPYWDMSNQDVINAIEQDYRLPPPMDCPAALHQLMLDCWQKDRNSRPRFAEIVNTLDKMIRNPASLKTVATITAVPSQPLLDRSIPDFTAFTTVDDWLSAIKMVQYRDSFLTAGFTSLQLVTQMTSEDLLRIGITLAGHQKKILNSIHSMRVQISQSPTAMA
Summary of the method: as §1

Chain of MAPKAP-K3 (Q16644 whole entry): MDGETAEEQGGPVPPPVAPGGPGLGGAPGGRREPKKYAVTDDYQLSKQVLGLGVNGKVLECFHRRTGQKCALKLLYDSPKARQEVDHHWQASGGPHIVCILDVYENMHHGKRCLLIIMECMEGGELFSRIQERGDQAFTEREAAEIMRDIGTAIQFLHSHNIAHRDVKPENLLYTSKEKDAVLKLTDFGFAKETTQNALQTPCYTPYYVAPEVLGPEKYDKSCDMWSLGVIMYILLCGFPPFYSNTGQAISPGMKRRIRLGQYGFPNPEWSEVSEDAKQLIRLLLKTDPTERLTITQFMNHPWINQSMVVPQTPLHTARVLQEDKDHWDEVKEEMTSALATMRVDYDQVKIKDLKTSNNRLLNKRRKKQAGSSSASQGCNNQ

Row | Structure (SMILES) | remaining activity at 1 µM [1] | remaining activity at 1 µM [2] | remaining activity at 1 µM [3] | remaining activity at 1 µM [4]
1 | N=C(N)NCCC[C@@H](NC(=O)CCCCCNC(=O)Cn1cnc2c(I)c(I)c(I)c(I)c21)C(=O)N[C@H](CCCNC(=N)N)C(=O)N[C@H](CCCNC(=N)N)C(=O)N[C@H](CCCNC(=N)N)C(=O)N[C@H](CCCNC(=N)N)C(=O)N[C@H](CCCNC(=N)N)C(=O)N[C@H](CCCCN)C(N)=O [ARC-3125, TIBI-CH2-C(=O)-Ahx-(D-Arg)6-D-Lys-NH2] | 14 ± 1% | 89 ± 9% | 48 ± 1% | 106 ± 12%
2 | N=C(N)NCCC[C@@H](NC(=O)CNC(=O)[C@@H](CCCNC(=N)N)NC(=O)[C@@H](CCCNC(=N)N)NC(=O)CCCCCCCNCc1nc2c(sc3cc(Br)cnc32)c(=O)[nH]1)C(=O)N[C@H](CCCCN)C(N)=O [Compound 1, BPTP-Aoc-(D-Arg)2-Gly-D-Arg-D-Lys-NH2] | 95 ± 6% | 107 ± 5% | 111 ± 6% | 103 ± 9%
3 | N=C(N)NCCC[C@@H](NC(=O)CNC(=O)[C@@H](CCCNC(=N)N)NC(=O)[C@@H](CCCNC(=N)N)NC(=O)CCCCCCCNCc1nc2c(sc3ccc(Br)cc32)c(=O)[nH]1)C(=O)N[C@H](CCCCN)C(N)=O [Compound 2, BBTP-Aoc-(D-Arg)2-Gly-D-Arg-D-Lys-NH2] | 118 ± 11% | 99 ± 6% | 110 ± 11% | 99 ± 15%
4 | N=C(N)NCCC[C@@H](NC(=O)CCCCCNCc1nc2c(sc3cc(Br)cnc32)c(=O)[nH]1)C(=O)N[C@H](CCCNC(=N)N)C(=O)N[C@H](CCCNC(=N)N)C(=O)N[C@H](CCCNC(=N)N)C(=O)N[C@H](CCCNC(=N)N)C(=O)N[C@H](CCCNC(=N)N)C(=O)N[C@H](CCCCN)C(N)=O [ARC-3126, BPTP-Ahx-(D-Arg)6-D-Lys-NH2] (X3-[dR][dR][dR][dR][dR][dR][dK]-NH2) | 92 ± 4% | 119 ± 6% | 43 ± 7% | 96 ± 6%
5 | N=C(N)NCCC[C@@H](NC(=O)CNC(=O)[C@@H](CCCNC(=N)N)NC(=O)[C@@H](CCCNC(=N)N)NC(=O)Cn1cc(CNCc2nc3c(sc4ccc(Br)cc43)c(=O)[nH]2)nn1)C(=O)N[C@H](CCCCN)C(N)=O [Compound 3, BBTP-Amt-(D-Arg)2-Gly-D-Arg-D-Lys-NH2] | 89 ± 2% | 108 ± 11% | 85 ± 5% | 106 ± 11%
